Sequences and labels used below:
B1: τ protein (τ subunit of the clamp-loader), B. subtilis, full-length (natural protein, UniProt P09122 1-563, looked up)
chain: MSYQALYRVFRPQRFEDVVGQEHITKTLQNALLQKKFSHAYLFSGPRGTGKTSAAKIFAKAVNCEHAPVDEPCNECAACKGITNGSISDVIEIDAASNNGVDEIRDIRDKVKFAPSAVTYKVYIIDEVHMLSIGAFNALLKTLEEPPEHCIFILATTEPHKIPLTIISRCQRFDFKRITSQAIVGRMNKIVDAEQLQVEEGSLEIIASAADGGMRDALSLLDQAISFSGDILKVEDALLITGAVSQLYIGKLAKSLHDKNVSDALETLNELLQQGKDPAKLIEDMIFYFRDMLLYKTAPGLEGVLEKVKVDETFRELSEQIPAQALYEMIDILNKSHQEMKWTNHPRIFFEVAVVKICQTSHQSAADLPEVDMLMKKIQQLEQEVERLKTTGIKAAAESPKKEAPRVPKGGKSNYKAPVGRIHEILKEATRPDLDLLRNSWGKLLAHLKQQNKVSHAALLNDSEPVAAGSAAFVLKFKYEIHCKMVAEDNNGVRTNLEQILESMLGKRMDLIGVPEAQWGKIREEFLEDHQQENEGSNEPAEEDPLIAEAKKLVGADLIEIKD

One data set has as its target τ (Escherichia coli) (UniProt P06710). To be noted: cited from earlier work.
Data set [1] has as its target τ domain III, B. subtilis (B. subtilis). The data set is described as follows: SEC. (Size exclusion chromatography separates by hydrodynamic size, large species first.)
The data set “atomic force microscopy” deals with the molecule itself. Kind of data set: atomic force microscopy.
Data set [2] deals with B1. Kind of data set: SPR. On the technique in general: SPR reads the build-up and loss of mass on a sensor chip optically.

What is called Kd is a measure of binding affinity in units of concentration. One may read the stoichiometry N as the number of molecules, sites or subunits per partner or assembly.

Sequence of τ (Escherichia coli) (P06710 2-643): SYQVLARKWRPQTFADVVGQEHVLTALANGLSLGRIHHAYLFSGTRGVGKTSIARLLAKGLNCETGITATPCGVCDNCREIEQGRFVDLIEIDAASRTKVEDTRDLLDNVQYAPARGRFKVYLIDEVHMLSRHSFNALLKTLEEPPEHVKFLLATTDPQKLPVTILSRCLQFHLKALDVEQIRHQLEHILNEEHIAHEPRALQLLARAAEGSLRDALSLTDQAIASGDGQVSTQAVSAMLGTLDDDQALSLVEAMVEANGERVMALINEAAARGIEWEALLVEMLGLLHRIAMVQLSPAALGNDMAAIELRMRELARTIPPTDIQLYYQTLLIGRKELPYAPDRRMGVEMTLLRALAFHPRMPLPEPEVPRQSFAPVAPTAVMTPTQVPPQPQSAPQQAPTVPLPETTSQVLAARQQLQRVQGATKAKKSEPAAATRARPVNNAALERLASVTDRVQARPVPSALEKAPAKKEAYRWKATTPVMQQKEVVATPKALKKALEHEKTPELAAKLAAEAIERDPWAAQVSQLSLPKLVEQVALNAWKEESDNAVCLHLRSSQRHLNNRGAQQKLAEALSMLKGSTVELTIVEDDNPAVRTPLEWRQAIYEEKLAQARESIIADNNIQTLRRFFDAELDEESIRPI

As to DnaB (from UniProt P0ACB0), the Kd in the data set with τ (Escherichia coli) was 4 nM. “τ domain III, B. subtilis (domain or fragment)”: the stoichiometry N in data set [1] came out at 2. As to B1, in the data set “atomic force microscopy”, the binding result is “binds”.

B2: His-tagged DnaB, Bacillus stearothermophilus (enzyme, UniProt Q9X4C9 1-454, looked up)
chain: MSELFSERIPPQSIEAEQAVLGAVFLDPAALVPASEILIPEDFYRAAHQKIFHAMLRVADRGEPVDLVTVTAELAASEQLEEIGGVSYLSELADAVPTAANVEYYARIVEEKSVLRRLIRTATSIAQDGYTREDEIDVLLDEADRKIMEVSQRKHSGAFKNIKDILVQTYDNIEMLHNRDGEITGIPTGFTELDRMTSGFQRSDLIIVAARPSVGKTAFALNIAQNVATKTNENVAIFSLEMSAQQLVMRMLCAEGNINAQNLRTGKLTPEDWGKLTMAMGSLSNAGIYIDDTPSIRVSDIRAKCRRLKQESGLGMIVIDYLQLIQGSGRSKENRQQEVSEISRSLKALARELEVPVIALSQLSRSVEQRQDKRPMMSDIRESGSIEQDADIVAFLYRDDYYNKDSENKNIIEIIIAKQRNGPVGTVQLAFIKEYNKFVNLERRFDEAQIPPGA
In turn, B2 showed a Kd in data set [2] of 2.3 nM.

The values are drawn from PMC3034218 (Journal of molecular biology, 2004).
